Source: patent publication US20190338009A1 (ZEALAND PHARMA A S, published 2019)
Values belong to the binder of their own block, whether it stands above or below them. Square brackets hold non-standard residues; d marks the D form. Aib = CC(C)(N)C(=O)O

Assays:
[1] = target: human glucagon-like peptide 1 receptor (GLP-1R) (human, UniProt P43220 24-463); assay: cell-based or functional assay
[2] = target: T1, human GLP-2 receptor (hGLP2-R) (human, UniProt O95838 1-553); assay: cell-based or functional assay
T1 sequence (looked up): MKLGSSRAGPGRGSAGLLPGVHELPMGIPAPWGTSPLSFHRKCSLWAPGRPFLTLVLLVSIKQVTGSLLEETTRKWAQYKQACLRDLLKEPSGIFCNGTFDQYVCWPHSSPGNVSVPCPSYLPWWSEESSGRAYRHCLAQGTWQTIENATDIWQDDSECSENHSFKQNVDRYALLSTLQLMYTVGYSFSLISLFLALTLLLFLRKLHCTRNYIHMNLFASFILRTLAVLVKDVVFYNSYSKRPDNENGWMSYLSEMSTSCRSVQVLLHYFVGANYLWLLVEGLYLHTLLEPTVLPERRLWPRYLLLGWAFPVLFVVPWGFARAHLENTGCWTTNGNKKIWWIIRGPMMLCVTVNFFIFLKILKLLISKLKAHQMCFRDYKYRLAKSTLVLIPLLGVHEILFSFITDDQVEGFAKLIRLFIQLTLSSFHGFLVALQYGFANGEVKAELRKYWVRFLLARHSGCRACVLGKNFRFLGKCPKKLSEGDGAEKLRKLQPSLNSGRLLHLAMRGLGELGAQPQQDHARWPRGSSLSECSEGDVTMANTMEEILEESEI

B2: Compound 2 (peptide)
peptide: H-H[Aib]EGTFSSELATILDEQAARDFIAWLIAHKITD-OH
SMILES: CC[C@H](C)[C@H](NC(=O)[C@H](CC(C)C)NC(=O)[C@H](Cc1c[nH]c2ccccc12)NC(=O)[C@H](C)NC(=O)[C@@H](NC(=O)[C@H](Cc1ccccc1)NC(=O)[C@H](CC(=O)O)NC(=O)[C@H](CCCNC(=N)N)NC(=O)[C@H](C)NC(=O)[C@H](C)NC(=O)[C@H](CCC(N)=O)NC(=O)[C@H](CCC(=O)O)NC(=O)[C@H](CC(=O)O)NC(=O)[C@H](CC(C)C)NC(=O)[C@@H](NC(=O)[C@@H](NC(=O)[C@H](C)NC(=O)[C@H](CC(C)C)NC(=O)[C@H](CCC(=O)O)NC(=O)[C@H](CO)NC(=O)[C@H](CO)NC(=O)[C@H](Cc1ccccc1)NC(=O)[C@@H](NC(=O)CNC(=O)[C@H](CCC(=O)O)NC(=O)C(C)(C)NC(=O)[C@@H](N)Cc1c[nH]cn1)[C@@H](C)O)[C@@H](C)O)[C@@H](C)CC)[C@@H](C)CC)C(=O)N[C@@H](C)C(=O)N[C@@H](Cc1c[nH]cn1)C(=O)N[C@@H](CCCCN)C(=O)N[C@H](C(=O)N[C@H](C(=O)N[C@@H](CC(=O)O)C(=O)O)[C@@H](C)O)[C@@H](C)CC
EC50 GLP-1 (nM); cAMP AlphaScreen, HEK293 cells expressing human GLP-1R [1]: 0.046 nM | EC50 GLP-2 (nM); cAMP AlphaScreen, HEK293 cells expressing human GLP-2R [2]: 0.034 nM

B5: Compound 30 (peptide)
peptide: H-H[Aib]EGSFTSELATILDEQAARDFIAWLYRHKITD-OH
SMILES: CC[C@H](C)[C@H](NC(=O)[C@H](Cc1ccccc1)NC(=O)[C@H](CC(=O)O)NC(=O)[C@H](CCCNC(=N)N)NC(=O)[C@H](C)NC(=O)[C@H](C)NC(=O)[C@H](CCC(N)=O)NC(=O)[C@H](CCC(=O)O)NC(=O)[C@H](CC(=O)O)NC(=O)[C@H](CC(C)C)NC(=O)[C@@H](NC(=O)[C@@H](NC(=O)[C@H](C)NC(=O)[C@H](CC(C)C)NC(=O)[C@H](CCC(=O)O)NC(=O)[C@H](CO)NC(=O)[C@@H](NC(=O)[C@H](Cc1ccccc1)NC(=O)[C@H](CO)NC(=O)CNC(=O)[C@H](CCC(=O)O)NC(=O)C(C)(C)NC(=O)[C@@H](N)Cc1c[nH]cn1)[C@@H](C)O)[C@@H](C)O)[C@@H](C)CC)C(=O)N[C@@H](C)C(=O)N[C@@H](Cc1c[nH]c2ccccc12)C(=O)N[C@@H](CC(C)C)C(=O)N[C@@H](Cc1ccc(O)cc1)C(=O)N[C@@H](CCCNC(=N)N)C(=O)N[C@@H](Cc1c[nH]cn1)C(=O)N[C@@H](CCCCN)C(=O)N[C@H](C(=O)N[C@H](C(=O)N[C@@H](CC(=O)O)C(=O)O)[C@@H](C)O)[C@@H](C)CC
EC50 GLP-1 (nM); cAMP AlphaScreen, HEK293 cells expressing human GLP-1R [1]: 0.1 nM | EC50 GLP-2 (nM); cAMP AlphaScreen, HEK293 cells expressing human GLP-2R [2]: 0.034 nM

The remaining lines, values ahead:

EC50 GLP-1 (nM); cAMP AlphaScreen, HEK293 cells expressing human GLP-1R [1]: 0.02 nM | EC50 GLP-2 (nM); cAMP AlphaScreen, HEK293 cells expressing human GLP-2R [2]: 0.078 nM
B1: Compound 31 (peptide)
peptide: H-H[Aib]EGSFTSELATILDGKAARDFIAWLIAHKITD-OH
SMILES: CC[C@H](C)[C@H](NC(=O)[C@H](CC(C)C)NC(=O)[C@H](Cc1c[nH]c2ccccc12)NC(=O)[C@H](C)NC(=O)[C@@H](NC(=O)[C@H](Cc1ccccc1)NC(=O)[C@H](CC(=O)O)NC(=O)[C@H](CCCNC(=N)N)NC(=O)[C@H](C)NC(=O)[C@H](C)NC(=O)[C@H](CCCCN)NC(=O)CNC(=O)[C@H](CC(=O)O)NC(=O)[C@H](CC(C)C)NC(=O)[C@@H](NC(=O)[C@@H](NC(=O)[C@H](C)NC(=O)[C@H](CC(C)C)NC(=O)[C@H](CCC(=O)O)NC(=O)[C@H](CO)NC(=O)[C@@H](NC(=O)[C@H](Cc1ccccc1)NC(=O)[C@H](CO)NC(=O)CNC(=O)[C@H](CCC(=O)O)NC(=O)C(C)(C)NC(=O)[C@@H](N)Cc1c[nH]cn1)[C@@H](C)O)[C@@H](C)O)[C@@H](C)CC)[C@@H](C)CC)C(=O)N[C@@H](C)C(=O)N[C@@H](Cc1c[nH]cn1)C(=O)N[C@@H](CCCCN)C(=O)N[C@H](C(=O)N[C@H](C(=O)N[C@@H](CC(=O)O)C(=O)O)[C@@H](C)O)[C@@H](C)CC

EC50 GLP-1 (nM); cAMP AlphaScreen, HEK293 cells expressing human GLP-1R [1]: 0.038 nM | EC50 GLP-2 (nM); cAMP AlphaScreen, HEK293 cells expressing human GLP-2R [2]: 0.15 nM
B3: Compound 32 (peptide)
peptide: H-H[Aib]EGTFSSELATILDGKAARDFIAWLIAHKITD-OH
SMILES: CC[C@H](C)[C@H](NC(=O)[C@H](CC(C)C)NC(=O)[C@H](Cc1c[nH]c2ccccc12)NC(=O)[C@H](C)NC(=O)[C@@H](NC(=O)[C@H](Cc1ccccc1)NC(=O)[C@H](CC(=O)O)NC(=O)[C@H](CCCNC(=N)N)NC(=O)[C@H](C)NC(=O)[C@H](C)NC(=O)[C@H](CCCCN)NC(=O)CNC(=O)[C@H](CC(=O)O)NC(=O)[C@H](CC(C)C)NC(=O)[C@@H](NC(=O)[C@@H](NC(=O)[C@H](C)NC(=O)[C@H](CC(C)C)NC(=O)[C@H](CCC(=O)O)NC(=O)[C@H](CO)NC(=O)[C@H](CO)NC(=O)[C@H](Cc1ccccc1)NC(=O)[C@@H](NC(=O)CNC(=O)[C@H](CCC(=O)O)NC(=O)C(C)(C)NC(=O)[C@@H](N)Cc1c[nH]cn1)[C@@H](C)O)[C@@H](C)O)[C@@H](C)CC)[C@@H](C)CC)C(=O)N[C@@H](C)C(=O)N[C@@H](Cc1c[nH]cn1)C(=O)N[C@@H](CCCCN)C(=O)N[C@H](C(=O)N[C@H](C(=O)N[C@@H](CC(=O)O)C(=O)O)[C@@H](C)O)[C@@H](C)CC

EC50 GLP-1 (nM); cAMP AlphaScreen, HEK293 cells expressing human GLP-1R [1]: 0.004 nM | EC50 GLP-2 (nM); cAMP AlphaScreen, HEK293 cells expressing human GLP-2R [2]: 0.041 nM
B4: Compound 33 (peptide)
peptide: H-H[Aib]EGTFTSELATILDEQAARDFINWLIAHKITD-OH
SMILES: CC[C@H](C)[C@H](NC(=O)[C@H](CC(C)C)NC(=O)[C@H](Cc1c[nH]c2ccccc12)NC(=O)[C@H](CC(N)=O)NC(=O)[C@@H](NC(=O)[C@H](Cc1ccccc1)NC(=O)[C@H](CC(=O)O)NC(=O)[C@H](CCCNC(=N)N)NC(=O)[C@H](C)NC(=O)[C@H](C)NC(=O)[C@H](CCC(N)=O)NC(=O)[C@H](CCC(=O)O)NC(=O)[C@H](CC(=O)O)NC(=O)[C@H](CC(C)C)NC(=O)[C@@H](NC(=O)[C@@H](NC(=O)[C@H](C)NC(=O)[C@H](CC(C)C)NC(=O)[C@H](CCC(=O)O)NC(=O)[C@H](CO)NC(=O)[C@@H](NC(=O)[C@H](Cc1ccccc1)NC(=O)[C@@H](NC(=O)CNC(=O)[C@H](CCC(=O)O)NC(=O)C(C)(C)NC(=O)[C@@H](N)Cc1c[nH]cn1)[C@@H](C)O)[C@@H](C)O)[C@@H](C)O)[C@@H](C)CC)[C@@H](C)CC)C(=O)N[C@@H](C)C(=O)N[C@@H](Cc1c[nH]cn1)C(=O)N[C@@H](CCCCN)C(=O)N[C@H](C(=O)N[C@H](C(=O)N[C@@H](CC(=O)O)C(=O)O)[C@@H](C)O)[C@@H](C)CC
